Here are results for one molecule from PMC8163841.

This assay addresses Ino80 carrying a C-terminal 2xFlag-tag (S. cerevisiae) (UniProt P53115).
Sequence of UniProt P53115 (P53115 whole entry): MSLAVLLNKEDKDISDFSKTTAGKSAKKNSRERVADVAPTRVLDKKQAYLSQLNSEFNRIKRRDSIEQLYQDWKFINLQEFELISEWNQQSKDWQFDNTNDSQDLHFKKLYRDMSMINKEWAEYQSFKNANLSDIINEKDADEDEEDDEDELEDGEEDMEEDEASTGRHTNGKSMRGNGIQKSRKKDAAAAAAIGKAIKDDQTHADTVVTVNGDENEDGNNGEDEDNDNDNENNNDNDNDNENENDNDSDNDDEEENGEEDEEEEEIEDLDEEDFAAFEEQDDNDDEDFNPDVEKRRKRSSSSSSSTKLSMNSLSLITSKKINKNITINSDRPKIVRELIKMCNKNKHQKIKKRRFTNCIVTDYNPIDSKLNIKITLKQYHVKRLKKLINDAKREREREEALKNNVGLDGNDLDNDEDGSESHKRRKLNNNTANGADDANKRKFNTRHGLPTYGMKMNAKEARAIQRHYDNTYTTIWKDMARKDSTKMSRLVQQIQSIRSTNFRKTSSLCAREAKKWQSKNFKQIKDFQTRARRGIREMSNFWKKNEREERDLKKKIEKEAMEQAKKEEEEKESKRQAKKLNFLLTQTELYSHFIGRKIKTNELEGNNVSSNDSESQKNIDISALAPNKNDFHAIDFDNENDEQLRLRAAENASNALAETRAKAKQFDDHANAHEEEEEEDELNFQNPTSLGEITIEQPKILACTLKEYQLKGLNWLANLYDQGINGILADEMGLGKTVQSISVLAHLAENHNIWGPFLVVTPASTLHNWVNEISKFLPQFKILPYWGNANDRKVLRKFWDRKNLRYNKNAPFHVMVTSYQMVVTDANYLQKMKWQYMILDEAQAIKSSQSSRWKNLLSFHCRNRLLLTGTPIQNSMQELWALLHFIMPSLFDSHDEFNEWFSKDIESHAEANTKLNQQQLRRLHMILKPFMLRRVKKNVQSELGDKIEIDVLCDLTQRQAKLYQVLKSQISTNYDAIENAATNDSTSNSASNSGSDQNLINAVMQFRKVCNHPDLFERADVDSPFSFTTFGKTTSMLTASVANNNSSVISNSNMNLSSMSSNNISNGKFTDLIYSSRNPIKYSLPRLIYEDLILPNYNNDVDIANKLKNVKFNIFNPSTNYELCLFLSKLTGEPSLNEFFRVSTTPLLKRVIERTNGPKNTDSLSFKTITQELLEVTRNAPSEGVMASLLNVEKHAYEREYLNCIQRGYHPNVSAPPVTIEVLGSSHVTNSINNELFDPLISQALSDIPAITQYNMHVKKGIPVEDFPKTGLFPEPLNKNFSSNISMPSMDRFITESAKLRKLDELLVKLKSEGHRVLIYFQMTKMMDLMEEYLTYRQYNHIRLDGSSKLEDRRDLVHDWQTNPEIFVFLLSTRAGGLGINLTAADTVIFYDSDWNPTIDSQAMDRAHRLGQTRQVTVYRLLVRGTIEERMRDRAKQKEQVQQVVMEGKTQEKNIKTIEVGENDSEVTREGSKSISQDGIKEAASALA

B1: S. cerevisiae Reb1 with a Streptavidin tag at the C terminus (natural protein)
chain: MPSGHNDKNANQESVEEAVLKYVGVGLDHQNHDPQLHTKDLENKHSKKQNIVESSSDVDVNNNDDSNRNEDNNDDSENISALNANESSSNVDHANSNEQHNAVMDWYLRQTAHNQQDDEDDENNNNTDNGNDSNNHFSQSDIVVDDDDDKNKKDAGVGVDDDHQSMAMAAVAAAYTLSKNNNNNNSIANDSNSRKRQHDNGNNHENSQKKRKNNNDDDDRQIGNVDPELTTLGDADDNDTNNDVIDRDQLVHKAIIDADSITQHPDFQQYLNTAADTDDNEKLKHIKDHLMRTHGLNHQNKNHNDDTDDLSNSTKQYSELQKDSMLDSSLNKSRNYMEVLPKVISQDTQPHQQKSPSHDNEAGSVDNSEISQLLQSAATKASSLVSLSSSSATPSTSRSNNSKAFDKAEDAALERFINEYEAIERLTRQQVCERIWSSDRPKDNFWNNIYKVLPYRSSSSIYKHMRRKYHIFEQRGKWTAEEEQELAKLCAEKEGQWAEIGKTLGRMPEDCRDRWRNYVKCGTNRASNRWSVEEEELLKKVISDMLEEAQQQQSQLHPNLLEEEQHLLQDDQNDHRNNDEDDDDTASAAAAAAAAIQEQQQLLQQKQQDDDDAIAAAAAAASSSLGDNKDEDKPHDSLGIQLDDNSQNSMVPAPSATSTHSKSLSNTIRRHNNKLRKSLMGNGKLDFKDIINWTIVSERMGGTRSRIQCRYKWNKLVKREAIAKIQTVKDDDMLWIFEKLRDLGITEDSQVDWDELAALKPGMKLNGLELKLCYERMKKKVKGYKQKSINEISKELVDYFSSNISMKTEN
Turning to B1, the NADH-based ATPase activity of the WT INO80 complex with yGL167c-NCP601 mononucleosomes, with against without Reb1 was 2 fold.
